Assay results: US20190144863

Biological target: EZH2 (UniProt Q61188)
Test: filter
Details: negative control RNA

EZH2, sequence (Q61188 whole entry): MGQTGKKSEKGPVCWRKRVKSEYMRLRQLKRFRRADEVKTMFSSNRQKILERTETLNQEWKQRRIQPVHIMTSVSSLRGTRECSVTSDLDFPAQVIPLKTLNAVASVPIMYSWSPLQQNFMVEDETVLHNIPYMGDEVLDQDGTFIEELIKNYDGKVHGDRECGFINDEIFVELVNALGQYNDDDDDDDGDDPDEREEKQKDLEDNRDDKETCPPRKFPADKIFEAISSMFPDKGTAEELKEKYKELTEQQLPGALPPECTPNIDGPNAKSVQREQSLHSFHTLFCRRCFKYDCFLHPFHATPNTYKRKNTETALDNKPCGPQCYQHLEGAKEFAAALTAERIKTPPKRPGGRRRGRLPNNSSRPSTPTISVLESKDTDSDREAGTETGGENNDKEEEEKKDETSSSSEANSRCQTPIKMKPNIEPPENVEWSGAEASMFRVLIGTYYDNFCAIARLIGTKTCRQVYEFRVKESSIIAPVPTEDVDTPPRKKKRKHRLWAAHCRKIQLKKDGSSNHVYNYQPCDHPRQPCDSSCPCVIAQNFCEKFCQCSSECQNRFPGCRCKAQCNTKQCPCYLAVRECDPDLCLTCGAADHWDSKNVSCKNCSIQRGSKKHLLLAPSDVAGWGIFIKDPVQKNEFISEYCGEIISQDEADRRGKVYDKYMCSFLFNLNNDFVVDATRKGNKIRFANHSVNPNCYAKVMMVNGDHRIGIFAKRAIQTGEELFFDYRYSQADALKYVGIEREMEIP

Substance: P4P6 RNA
- Kd: > 3 µM
